Reference: patent publication US20220089743A1

Legend:
Test in all cases: cell-based or functional assay
[1] = target: HLA-DQ2.5 on IHW09023 cells loaded with gamma 4a gliadin peptide (human; wheat)
[2] = target: HLA-DQ2.5 on IHW09023 cells loaded with gamma 4d gliadin peptide (human; wheat)
[3] = target: HLA-DQ2.5 on IHW09023 cells loaded with gamma 1 gliadin peptide (human; wheat)
[4] = target: HLA-DQ2.5 on IHW09023 cells loaded with 33 mer gliadin peptide (human; wheat)
[5] = target: HLA-DQ2.5 on IHW09023 cells loaded with omega1/2 gliadin peptide (human; wheat)
[6] = target: HLA-DQ2.5 on IHW09023 cells loaded with gamma 3 gliadin peptide (human; wheat)
[7] = target: HLA-DQ2.5 on IHW09023 cells loaded with BC hordein peptide (human; barley)
[8] = target: HLA-DQ2.5 on IHW09023 cells loaded with gamma 2 gliadin peptide (human; wheat)

B1: DQN034425 (antibody, V domains shown)
VH: QVQLVESGGGVVQPGRSLRLSCAASGFTFSSSYWMCWVRQAPGQGLEWMGCVYGGSDTTYYASWTKGRFTISRDNSKNTLYLQMNSLRAEDTAVYYCARDPLNYYYYGELNLWGQGTLVTVSS
VL: DIQMTQSPSSLSASVGDRVTITCQATENIYSGLAWYQQKPGKAPKLLIYYVSTLASGIPARFSGSGSGTDFTLTISSLEPEDFAVYYCQTYHDISNVTFGQGTKVEIK
- IC50, γ4a gliadin TCR, 25 µM γ4a gliadin [1]: > 20 µg/mL
- IC50, γ4d gliadin TCR, 100 µM γ4d gliadin [2]: > 20 µg/mL
- IC50, γ1 gliadin TCR, 250 nM γ1 gliadin [3]: > 20 µg/mL
- IC50, α1a gliadin TCR, 250 nM 33mer gliadin [4]: 0.0106 µg/mL
- IC50, α1b gliadin TCR, 250 nM 33mer gliadin [4]: 0.0464 µg/mL
- IC50, α2 gliadin TCR, 250 nM 33mer gliadin [4]: 0.00175 µg/mL
- IC50, ω1 gliadin TCR, 25 µM ω1/2 gliadin [5]: 0.00312 µg/mL
- IC50, ω2 gliadin TCR, 250 nM ω1/2 gliadin [5]: > 0.5 µg/mL
- IC50, γ3 gliadin TCR, 100 µM γ3 gliadin [6]: 3.1 µg/mL
- IC50, BC hordein TCR, 250 nM BC hordein [7]: > 20 µg/mL
- IC50, γ2 gliadin TCR, 250 nM γ2 gliadin [8]: > 20 µg/mL
